This is an account of results in PMC11489326, “Characterization of lignin-degrading enzyme PmdC, which catalyzes a key step in the synthesis of polymer precursor 2-pyrone-4,6-dicarboxylic acid” (The Journal of Biological Chemistry, 2024).

In the assay the target is CHMS dehydrogenase PmdC from Comamonas testosteroni (Comamonas testosteroni). Kind of assay: SEC; purified PmdC (wild type and mutants) in solution; conditions of the run not told in the text shown (Figs. S5, S12). A general note: Size exclusion chromatography separates by hydrodynamic size, large species first.

By stoichiometry N is commonly meant a count of units in the complex or per binding partner. “CHMS dehydrogenase PmdC from Comamonas testosteroni (enzyme)” came in with a stoichiometry N of 2.
